In the supplement of paper PMC11865577:

How the values were obtained:
Test in all cases: pull-down binding Z-score (relative to library population); higher = stronger binding
[1] = test system: TO-3-N3 (biotin conjugate); conditions: RNA library: Library-2
In short: (§1)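 Biotin-conjugated small molecule (100 pmol) on streptavidin beads was incubated with 1 μg of heat-folded Cy5- or Cy3-end-labelled RNA library in phosphate/NaCl/KCl buffer at 25 °C for 60 min. Following three washes, RNA was eluted with hot SDS and hybridised at 55.5 °C for 20 h to a DNA barcode microarray. The binding value is a Z-score computed from the library mean and standard deviation, after subtraction of beads without compound and averaging of barcoded replicate probes with the highest and lowest excluded.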

[2] = test system: G-clamp-N3 (biotin conjugate); conditions: RNA library: Library-1 (pre-miRNA loops + repeats)
In short: as §1

[3] = test system: TO-N3-2 (biotin conjugate); conditions: RNA library: Library-2
In short: as §1

TO-N3 (biotin conjugate) = conditions: RNA library: Library-2
In short: as §1

[4] = test system: TO-3-N3-2 (biotin conjugate); conditions: RNA library: Library-2
In short: as §1

Sequence | pull-down binding Z-score [1] | pull-down binding Z-score [2] | pull-down binding Z-score [3] | pull-down binding Z-score (TO-N3 (biotin conjugate)) | pull-down binding Z-score [4]
UUUCUCUUAUGUGAAAAAAAAGAAG [hsa-mir-525] | -0.283 | -1.41 | -0.745 | -0.463 | -0.174
UUUCUCUUGUCCAAAGGAAAAGAAG [hsa-mir-524] | -0.644 | -0.493 | -0.747 | -0.636 | -0.376
UUUCUCUUGUCUAAAAGAAAAGAAA [hsa-mir-518f] | -0.761 | -0.201 | -0.969 | -0.8 | -0.281
UUUCUGAAUUUGUGAGA [hsa-mir-4463] | -0.00836 | -0.0109 | -0.751 | -0.277 | -0.191
UUUCUGUUGUCUAAAAGAAAAGAAA [hsa-mir-527] | -0.325 | 0.0533 | -0.575 | -0.383 | -0.186
UUUCUGUUGUCUAAAAGAAGAGAAA [hsa-mir-518a-2] | 0.159 | 0.832 | -0.273 | 0.171 | -0.0883
UUUCUGUUGUCUGAAAGAAAAGAAC [hsa-mir-523] | -0.301 | -0.976 | 0.513 | -0.0983 | 0.0657
UUUCUGUUGUCUGAAAGAAGAGAAA [hsa-mir-526b_518a-1] | -0.47 | 0.288 | -0.584 | -0.697 | -0.214
UUUCUGUUGUCUGAAAGCAGA [hsa-mir-515-1_515-2] | 0.216 | -0.445 | -0.0707 | 0.262 | 0.223
UUUCUUAAAUUUUAUAUAUUGGAA [hsa-mir-1284] | 0.193 | -0.71 | -1.11 | -0.124 | -0.0723
UUUGCAUCUGGACGACGAAU [hsa-mir-409] | -0.355 | -0.465 | 0.523 | -0.021 | -0.0371
UUUGCCAAUAAAAGUAAUGACAAA [hsa-mir-548ah] | 0.507 | -1.16 | -0.39 | 0.226 | 0.181
UUUGCCAGAGCUACAAAGGCAAA [hsa-mir-561] | -0.527 | 0.627 | -0.512 | -0.845 | -0.521
UUUGCCAUUAAAAGUAACGACAAA [hsa-mir-548a-1] | -0.873 | -0.965 | -0.81 | -1.11 | -0.389
UUUGCCAUUAAAAGUAAUGCGGCCAA [hsa-mir-548o-2] | -0.219 | -1.43 | -0.13 | -0.0582 | 0.0369
UUUGCCAUUAAAAGUAAUGGUAAA [hsa-mir-548x-2] | -0.753 | -0.261 | -1.58 | -1.29 | -0.616
UUUGCCAUUACUUUCAGUAGCAAA [hsa-mir-548c] | -0.131 | -0.417 | -0.814 | -0.379 | -0.441
UUUGCCAUUACUUUCAGUGGCAAA [hsa-mir-548aq] | -0.975 | 0.135 | -1.11 | -1.48 | -0.894
UUUGCCAUUAUAAUGGCAAA [hsa-mir-548ae-1] | -0.806 | -0.11 | -1.71 | -1.37 | -0.855

Sequence | pull-down binding Z-score [1] | pull-down binding Z-score [2] | pull-down binding Z-score [3] | pull-down binding Z-score (TO-N3 (biotin conjugate)) | pull-down binding Z-score [4]
UUUGCCAUUGAAAGUAAUGGCAAA [hsa-mir-548d-2] | -0.691 | 0.739 | -1.04 | -1.12 | -0.422
UUUGCCGUCGAAAAUAAUGGCAAA [hsa-mir-548am] | -0.422 | -0.204 | -0.502 | -0.71 | -0.146
UUUGCCGUUAAAAGUAAUGGCA [hsa-mir-548a-2] | -0.228 | -1.31 | -0.106 | -0.368 | -0.17
UUUGCCGUUGCUUUUAAUGGUAAA [hsa-mir-548as] | -0.291 | -0.134 | -1.31 | -0.571 | -0.381
UUUGCCUAUAAAAGUAAUGGCAAA [hsa-mir-548an] | -0.247 | 0.207 | -0.888 | -0.512 | -0.19
UUUGCCUCUCUCAGAAAAUAGAGUCAAA [hsa-mir-4694] | 0.229 | 0.239 | -0.759 | 0.157 | -0.0805
UUUGCCUGUAAAAGUAAUGGCAAA [hsa-mir-548d-1] | -0.488 | -0.646 | -0.552 | -0.702 | -0.105
UUUGCGUUACUUUCAAUCGUAAA [hsa-mir-548x] | -1.01 | -0.79 | -1.46 | -1.13 | -0.253
UUUGCUACUGAAAGUAAUGGCAAA [hsa-mir-548z] | -0.614 | 0.365 | -0.632 | -0.792 | -0.468
UUUGCUAUUACUUUUAAUGGUAAA [hsa-mir-548aj-2] | -0.666 | 1.61 | -1.19 | -0.932 | -0.502
UUUGCUAUUUUUUUUUAAUGGCAAA [hsa-mir-548ac] | -0.607 | 0.725 | -1.46 | -1.01 | -0.0611
UUUGCUGUUGAACGUAGUGGUAA [hsa-mir-548ar] | 0.181 | -0.679 | 0.387 | 0.407 | 0.0962
UUUGGCUGCCAAAAGAAAUGGCCAAA [hsa-mir-548at] | -0.656 | -0.71 | -0.668 | -0.547 | -0.331
UUUGGUAUUACUUUCAGUGGCAAA [hsa-mir-548j] | -0.416 | 0.937 | -0.485 | -0.448 | 0.0283
UUUGUACGGCACUGUGGCCACGUCCAAA [hsa-mir-497] | -0.121 | -0.884 | 0.0542 | -0.0106 | -0.306
UUUGUAUUGUGGUUCAGUACCAUGCAAA [hsa-mir-6507] | -0.367 | -0.552 | -0.933 | -0.633 | -0.36
UUUGUCAUUAAAGUAAUGCAAA [hsa-mir-548m] | 0.175 | -0.115 | -0.856 | 0.0311 | -0.211
UUUGUCAUUACUUUAAUUACUUUACGUUUCAUUAAUGACAAA [hsa-mir-548h-4] | -1.23 | -0.754 | -1.46 | -1.43 | -0.563
UUUGUCAUUUAAAAGUAAUGGCAAA [hsa-mir-548ae-2] | 0.207 | 0.815 | -0.902 | -0.203 | 0.00258
